One assay addresses T1, 6His-a2N(wt) (Mus musculus, UniProt P15920).
T1 construct: amino acid residues 1-402 of mouse V-ATPase a2-subunit (a2N1-402); made in house; host or cells: cell-free in vitro translation
T1 sequence (P15920 1-402): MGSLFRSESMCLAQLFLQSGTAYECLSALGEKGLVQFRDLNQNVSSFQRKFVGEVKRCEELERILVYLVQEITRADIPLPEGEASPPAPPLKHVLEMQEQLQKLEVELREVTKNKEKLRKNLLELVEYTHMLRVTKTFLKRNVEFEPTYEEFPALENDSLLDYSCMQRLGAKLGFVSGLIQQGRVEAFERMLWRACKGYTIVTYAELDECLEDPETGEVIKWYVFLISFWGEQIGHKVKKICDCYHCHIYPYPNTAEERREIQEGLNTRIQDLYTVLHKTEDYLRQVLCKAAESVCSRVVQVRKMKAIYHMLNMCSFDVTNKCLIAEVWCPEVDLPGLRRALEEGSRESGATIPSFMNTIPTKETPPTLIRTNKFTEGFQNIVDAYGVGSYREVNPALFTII
Briefly: ARNO-derived peptide pull-down with in vitro translated 6His-a2N(wt). The class given is binding. To be noted: 7 nmol biotin-tagged peptide on streptavidin-agarose beads. On the procedure:
FIGS. 4B-C are images of Western blots showing (4B) the results of peptide pull-down assays for interaction of a2N with Sec7-PH-linker of ARNO and (4C) phosphorylation-dependent interaction of a2N with ARNO-derived peptide corresponding to the PB-domain of ARNO. Corresponding ARNO-derived peptides were immobilized on streptavidin-beads and incubated with in vitro translated recombinant a2N. Interacting complexes were eluted and analyzed by Western blotting using anti-a2N antibodies.
ARNO-derived peptides, equal amounts (7 nmol) of biotin-tagged synthetic peptides were also immobilized on streptavidin-agarose beads followed by incubation with 10 μl of in vitro translated 6His-a2N(wt) recombinant protein. Pull-down experiments and SDS-PAGE analysis were performed as described above and interacting 6His-a2N/ARNO-derived-peptide complexes were analyzed by Western blotting using polyclonal anti-a2N antibody. All experiments were repeated at least three times with similar results.

The target of the next assay is T2, GST-ARNO(wt) (Homo sapiens, UniProt Q99418).
T2 construct: i) 1-400aa, full length ARNO(wt); made in house; host or cells: E. coli BL21(DE3)
T2 sequence (Q99418 1-400): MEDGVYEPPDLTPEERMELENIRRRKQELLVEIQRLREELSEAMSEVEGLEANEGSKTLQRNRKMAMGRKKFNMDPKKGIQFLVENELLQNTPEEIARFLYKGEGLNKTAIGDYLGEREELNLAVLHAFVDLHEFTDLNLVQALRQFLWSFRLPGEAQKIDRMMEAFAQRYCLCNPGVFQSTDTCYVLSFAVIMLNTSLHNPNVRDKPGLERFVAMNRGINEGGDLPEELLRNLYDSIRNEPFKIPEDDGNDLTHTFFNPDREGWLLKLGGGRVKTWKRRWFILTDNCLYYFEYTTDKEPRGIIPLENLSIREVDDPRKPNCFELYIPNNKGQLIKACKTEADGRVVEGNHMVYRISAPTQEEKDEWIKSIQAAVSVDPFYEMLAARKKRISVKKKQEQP
The assay is described as follows: recombinant protein pull-down of in vitro translated a2N-N / a2N-C with GST-ARNO(wt). The class given is binding. To be noted: 35S-labeled in vitro translated protein, autoradiography. An excerpt:
FIG. 2C is an image of a Western blot showing that both the amino terminus (a2N-N) and carboxyl terminus (a2N-C) of the cytosolic tail of the a2-subunit interact with ARNO(wt). Left panel, a pull-down (PD) of in vitro translated metabolically labeled a2N-N (a2N1-133) with recombinant GST-only and GST-ARNO(wt) used as a baits. […] Right panel, a pull-down (PD) of in vitro translated metabolically labeled a2N-C (a2N134-393) with recombinant GST-only and GST-ARNO(wt) used as a baits.
The purified recombinant GST-ARNO(wt) and GST-tagged ARNO domain constructs ([…]) were incubated with 10 μl of in vitro translated 6His-a2N recombinant protein at 4° C. for 2 hours in 500 μl of binding buffer (10 mM HEPES, 1 mM EDTA, 1 mM DTT, 100 mM NaCl, 10% glycerol, 0.1% NP-40) with gentle rotation. Then the interacting recombinant proteins were immobilized on glutathione beads by incubation with 50 μl of 50% glutathione Sepharose 4B slurry for 2 hours at 4° C. The beads were collected by centrifugation and washed 5 times with 500 μl ice-cold binding buffer. Interacting proteins were eluted by boiling in SDS-PAGE sample buffer for 10 min at 95° C., resolved by SDS-PAGE and analyzed by Western blotting using polyclonal anti-a2N antibodies. […]

Entries after “also recorded” stand apart in the source; their conditions may differ. Square brackets hold non-standard residues; d marks the D form. Ends that are not written are not given here. pS = N[C@@H](COP(=O)(O)O)C(=O)O

Regarding “Sec7/PH-linker: peptide corresponding to the Sec7/PH-linker region (242-261aa) of ARNO, SEQ ID NO:31 (PFKIPEDDGNDLTHTFFNPD)”, in the assay with 6His-a2N(wt), the “interaction of ARNO-derived peptide with a2N” value is given as “reproducibly observed”.

With “ARNO375-440^P: phosphorylated version (Ser392) of the ARNO PB-domain peptide, SEQ ID NO:33 (VSVDPFYEMLAARKKRI[pS]VKKKQEQP)”, the “interaction of ARNO-derived peptide with a2N” value in the assay with 6His-a2N(wt) is on record as “completely abolished”.

B1: a2N-C: C-terminal part of a2N, amino acid residues 134-393 of the mouse V-ATPase a2-subunit, in vitro translated (protein)
chain: MSGSHHHHHHSSGIEGRGRLIKMTVTKTFLKRNVEFEPTYEEFPALENDSLLDYSCMQRLGAKLGFVSGLIQQGRVEAFERMLWRACKGYTIVTYAELDECLEDPETGEVIKWYVFLISFWGEQIGHKVKKICDCYHCHIYPYPNTAEERREIQEGLNTRIQDLYTVLHKTEDYLRQVLCKAAESVCSRVVQVRKMKAIYHMLNMCSFDVTNKCLIAEVWCPEVDLPGLRRALEEGSRESGATIPSFMNTIPTKETPPTLIRTNKFTEGFQNIVDAYGVGSYRE
With B1, the “interaction with GST-ARNO(wt) in pull-down” value with GST-ARNO(wt) is “could interact; also recorded: direct interaction”.

B2: a2N-N: N-terminal part of a2N, amino acid residues 1-133 of the mouse V-ATPase a2-subunit, in vitro translated (protein)
chain: MSGSHHHHHHSSGIEGRGRLIKMTMGSLFRSESMCLAQLFLQSGTAYECLSALGEKGLVQFRDLNQNVSSFQRKFVGEVKRCEELERILVYLVQEITRADIPLPEGEASPPAPPLKHVLEMQEQLQKLEVELREVTKNKEKLRKNLLELVEYTHMLR
As for B2, in the assay with GST-ARNO(wt), the “interaction with GST-ARNO(wt) in pull-down” value was “could interact; also recorded: direct interaction”.

The values above are taken from patent US20140162285A1, “Methods of Modulating Vesicular Trafficking” (The General Hospital Corporation, priority 2009, published 2014).
